The text below walks through data of US20250197493A1 (Eli Lilly, published 2025).

The target of experiment [1] is T1, Human LAG-3 ECD-His (human, UniProt P18627 23-449).
T1 construct: It was the analyte in SPR and the antigen in HDX-MS; also called human LAG-3 soluble extracellular domain (ECD); human LAG-3-His ECD
T1 sequence: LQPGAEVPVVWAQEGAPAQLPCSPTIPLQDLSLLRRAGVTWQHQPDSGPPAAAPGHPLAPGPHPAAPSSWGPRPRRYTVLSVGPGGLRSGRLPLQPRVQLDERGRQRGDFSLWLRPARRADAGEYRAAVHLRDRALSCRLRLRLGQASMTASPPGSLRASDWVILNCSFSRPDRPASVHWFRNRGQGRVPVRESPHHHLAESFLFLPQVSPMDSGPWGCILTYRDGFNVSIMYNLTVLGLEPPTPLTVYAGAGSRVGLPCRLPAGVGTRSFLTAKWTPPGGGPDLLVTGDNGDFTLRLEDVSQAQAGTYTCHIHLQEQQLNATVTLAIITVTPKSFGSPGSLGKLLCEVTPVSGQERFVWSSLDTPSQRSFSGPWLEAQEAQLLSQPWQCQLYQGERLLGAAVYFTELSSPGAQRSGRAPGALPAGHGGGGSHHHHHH
Put plainly: SPR (Biacore), antibody captured, 25° C. The method, then: (§1) Surface Plasmon Resonance (SPR) at 37° C. is performed to determine the binding kinetics and affinity of LAG-3 antibodies to human LAG-3 and/or cynomolgus monkey LAG-3. A Biacore® T200 (Cytiva, Marlborough, MA) was used to measure the binding kinetics and affinities of Antibody A to human LAG-3 soluble extracellular domain (ECD) SEQ ID NO: 59) and to cynomolgus LAG-3 ECD (ACROBiosystems, Cat #LA3-C82H3; SEQ ID NO: 59) by surface plasmon resonance. Samples were diluted in HBS-EP+ (10 mM Hepes, 150 mM NaCl, 3 mM EDTA, 0.05% Tween-20, pH 7.6) (Teknova Cat #H8022) with 5 g/L of BSA (Jackson ImmunoResearch Cat #001-000-161) running buffer. PrismA Series S Sensor chip (Cat #29650263) is purchased from Cytiva.
(§2) Binding was evaluated using multi-cycle kinetics by an antibody capture method. Each cycle was performed at either 37° C. or 25° C. at a flow rate of 10 μL/min for antibody capture to the PrismA chip and 100 μL/min for analyte association (with 120 sec contact time) and dissociation (900 sec). Each cycle consisted of the following steps: injection of antibody at 1 μg/mL in HBS-EP+ targeting Rmax values of 60 RU on flow cell, injection of analyte in HBS-EP+ (concentration range of 500 nM to 0.25 nM by two-fold serial dilution for human LAG-3-His ECD (SEQ ID NO: 59) followed by 900-second dissociation phase, and regeneration using 10 μL of 10 mM glycine hydrochloride, pH 1.5 over a 60-second contact time utilizing a 10 μL/min flow rate. All analyte concentrations were determined utilizing monomeric molecular weight (MW) values. Association rates (kₒₙ) and dissociation rates (koff) for LAG-3-ECD were evaluated using double referencing by flow-cell one reference subtraction in addition to 0 nM blank subtraction and fit to “1:1 (Langmuir) binding” model in the BIAevaluation software version 4.1. The dissociation constant (KD) was calculated from the binding kinetics according to the relationship KD=Koff/Kₒₙ. Stoichiometry=[RUₘₐₓ/RUcaptured]/[MWanalyte/MWantibody] where MW_{Antibody A} is 150 kDa. Values are reported as mean±standard deviation.
(Surface plasmon resonance follows binding to a sensor surface in real time, without labels.)

The target in experiment [2] is T2, Cynomolgus LAG-3 ECD-His (cynomolgus monkey).
T2 construct: Bought protein (ACROBiosystems); also called ACROBiosystems Cat #LA3-C82H3
T2 chain: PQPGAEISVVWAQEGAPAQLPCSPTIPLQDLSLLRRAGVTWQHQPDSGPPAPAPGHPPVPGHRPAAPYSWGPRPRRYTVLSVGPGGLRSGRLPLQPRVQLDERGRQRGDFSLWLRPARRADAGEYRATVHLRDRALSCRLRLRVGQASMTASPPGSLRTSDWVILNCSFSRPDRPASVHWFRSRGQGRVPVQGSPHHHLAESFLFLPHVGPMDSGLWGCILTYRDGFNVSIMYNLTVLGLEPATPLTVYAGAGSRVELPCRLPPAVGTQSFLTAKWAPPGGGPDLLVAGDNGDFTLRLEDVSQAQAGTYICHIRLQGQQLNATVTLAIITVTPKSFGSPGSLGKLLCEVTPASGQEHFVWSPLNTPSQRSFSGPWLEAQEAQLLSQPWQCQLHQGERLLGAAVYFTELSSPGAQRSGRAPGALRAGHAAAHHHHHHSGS
Put plainly: SPR (Biacore), antibody captured, 25° C. The method, then:
as §1, §2

In experiment [3] the target is T1, Human LAG-3 ECD-His. Briefly: SPR (Biacore), antibody captured, 37° C. The procedure:
as §1, §2

In experiment [4] the target is T2, Cynomolgus LAG-3 ECD-His. Put plainly: SPR (Biacore), antibody captured, 37° C. The procedure:
as §1, §2

In experiment [5] the target is T3, cell membrane-expressed human LAG-3 (human, UniProt P18627 23-525).
T3 construct: also called cell surface human LAG-3; hLAG-3
T3 sequence: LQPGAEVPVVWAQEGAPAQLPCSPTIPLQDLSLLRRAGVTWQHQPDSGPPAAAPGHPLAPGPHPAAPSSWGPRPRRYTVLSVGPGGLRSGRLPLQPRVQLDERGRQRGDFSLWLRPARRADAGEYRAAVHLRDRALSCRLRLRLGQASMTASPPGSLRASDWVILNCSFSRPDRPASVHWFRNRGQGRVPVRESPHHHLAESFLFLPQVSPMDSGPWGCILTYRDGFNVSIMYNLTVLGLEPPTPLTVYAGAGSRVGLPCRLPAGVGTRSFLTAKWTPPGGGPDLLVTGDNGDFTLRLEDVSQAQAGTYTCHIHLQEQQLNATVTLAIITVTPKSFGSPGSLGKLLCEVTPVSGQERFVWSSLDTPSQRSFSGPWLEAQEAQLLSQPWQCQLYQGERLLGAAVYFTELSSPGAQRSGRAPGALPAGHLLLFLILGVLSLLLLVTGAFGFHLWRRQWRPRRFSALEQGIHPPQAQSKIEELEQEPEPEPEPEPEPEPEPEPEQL
Put plainly: flow cytometry, SEB-activated human PBMCs, CD4 T cells, percent of cells bound. The procedure: (§3) Cells were incubated with a 12 point, 4-fold serial dilutions of Antibody A or Isotype hG1, starting at 100 μg/mL, in PBS+2% FBS for 30 minutes at 4° C. The samples were washed and stained with 1 μg/mL Alexa Fluor 647 AffiniPure F (ab′) 2 Fragment Goat Anti-Human IgG, Fcy fragment specific (Jackson Immuno Research 109-606-098) in PBS+2% FBS for 30 minutes at 4° C. After washing thoroughly human samples were stained with CD3 Biolegend #300424, CD4 Biolegend #300512, CD8 Biolegend #301006, PD-1 Biolegend 329906, non-competing LAG3 418611 conjugated in house BN20-2739-10, Live/Dead Near IR Invitrogen L34975A, CD19 Biolegend 302218, CD33 Biolegend 366614, and CD56 Biolegend 362512 in PBS+2% FBS for 30 minutes at 4° C. Cyno samples were stained with CD3 BD 557917, CD4 BD 566910, CD8 BD 557746, PD-1 Biolegend 329906, non-competing LAG3 418611 conjugated in house BN20-2739-10, and Live/Dead Near IR Invitrogen L34975A in PBS+2% FBS for 30 minutes at 4° C. Cells were washed and processed on a BioRad ZE5 cytometer and data was analyzed with FlowJo software (BD Biosciences). Percent of cells bound by the respective antibody is quantified and graphed with Prism (Graphpad, San Diego, CA).

Experiment [6] has as its target T3, cell membrane-expressed human LAG-3. Put plainly: flow cytometry, SEB-activated human PBMCs, CD8 T cells, percent of cells bound. The method, then:
as §3
On the technique in general: A flow cytometer gives signals particle by particle.

For experiment [7], the target named is T4, cell membrane-expressed cynomolgus LAG-3 (cynomolgus monkey).
T4 construct: whole, on cells; also called cell surface cynomolgus monkey LAG-3
Briefly: flow cytometry, SEB-activated cynomolgus PBMCs, CD4 T cells, percent of cells bound. The procedure:
as §3

Experiment [8] deals with T4, cell membrane-expressed cynomolgus LAG-3. Briefly: flow cytometry, SEB-activated cynomolgus PBMCs, CD8 T cells, percent of cells bound. The method, then:
as §3

B1: Antibody A (antibody, human IgG1, kappa, V domains shown)
VH: QVQLQESGPGLVKPSQTLSLTCTVSGGSISSGGYYWSWIRQHPGKGLEWIGYIYYSGITYYNPSLKSRVTISVDTSKNQFSLKLSSVTAADTAVYYCARSAVTTPFDYWGQGTLVTVSS
VL: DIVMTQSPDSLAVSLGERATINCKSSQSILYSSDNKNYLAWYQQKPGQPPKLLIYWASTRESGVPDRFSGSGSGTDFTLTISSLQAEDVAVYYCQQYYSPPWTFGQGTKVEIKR
notes: Human IgG1 heavy chain, kappa light chain; also called anti-human LAG-3 agonist antibody
Regarding B1, the Kd (commonly a measure of binding affinity in units of concentration) in the experiment with Human LAG-3 ECD-His [1] came to 0.14 nM; with Cynomolgus LAG-3 ECD-His [2] it was 0.038 nM; with Human LAG-3 ECD-His [3], 0.064 nM; with Cynomolgus LAG-3 ECD-His [4], 0.13 nM. Moreover, the dissociation rate constant (koff) – broadly, the first-order rate constant of dissociation – with Human LAG-3 ECD-His [1] was found to be 0.0012 s⁻¹; with Cynomolgus LAG-3 ECD-His [2], 0.00015 s⁻¹; in the experiment with Human LAG-3 ECD-His [3] it was 0.0013 s⁻¹; with Cynomolgus LAG-3 ECD-His [4], 0.00035 s⁻¹. The kon (usually a measure of how fast the partners come together) with Human LAG-3 ECD-His [1] was found to be 8.3e+06 M⁻¹ s⁻¹; with Cynomolgus LAG-3 ECD-His [2], 3.9e+06 M⁻¹ s⁻¹; with Human LAG-3 ECD-His [3], 2.1e+07 M⁻¹ s⁻¹; in the experiment with Cynomolgus LAG-3 ECD-His [4] it was 2.7e+06 M⁻¹ s⁻¹. Also, the EC50 (as a rule, the concentration giving half of the maximal effect) in experiment [5] amounted to 0.0156 µg/mL; in experiment [6], 0.0155 µg/mL; in experiment [7], 0.857 µg/mL; in experiment [8], 0.183 µg/mL.
